Test results published in patent US20250215104A1.

Molecular target: cell surface human uPAR (huPAR) (human) (UniProt Q03405)
Experiment: cell-based or functional assay

cell surface human uPAR (huPAR) (human), sequence (Q03405 23-305): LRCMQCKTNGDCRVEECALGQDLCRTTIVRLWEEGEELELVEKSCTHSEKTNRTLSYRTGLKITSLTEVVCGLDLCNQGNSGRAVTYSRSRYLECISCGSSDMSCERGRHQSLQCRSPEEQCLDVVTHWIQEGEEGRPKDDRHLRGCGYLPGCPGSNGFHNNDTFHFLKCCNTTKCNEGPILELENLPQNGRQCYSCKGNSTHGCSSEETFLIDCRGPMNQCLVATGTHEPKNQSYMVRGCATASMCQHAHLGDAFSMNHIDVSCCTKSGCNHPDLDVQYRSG

cellular endocytosis: mean cellular fluorescent signal (FITC-conjugated antibody, 10 µg/mL, 1 hr, undifferentiated human podocytes): 100 RFU
Substance: hIgG control antibody
